Holding throughout (conditions): both partners purified
The target in assay [1] is T1, H1N1 A/Solomon Islands/3/2006 HA protein (Influenza A virus A/Solomon …, strain).
T1 construct: source: purified
The assay can be described thus: cryo-EM structure.

In assay [2] the target is A/USSR/90/1977 H1 hemagglutinin, recombinant (Influenza A virus A/USSR/90/1977 (H1N1), UniProt P03453, strain, biotin on the AviTag). Description: ELISA. (In general: In an ELISA, binding on a coated surface is turned into a signal by an enzyme label.)
The target in assay [3] is A/Brisbane/59/2007 H1 hemagglutinin, recombinant (Influenza A virus A/Brisbane/59/2007 …, UniProt D5F1Q8, strain, biotin on the AviTag). The assay can be described thus: ELISA.
For assay [4], the target named is A/New Caledonia/20/1999 (NC99) H1 hemagglutinin, recombinant (Influenza A virus A/New …, UniProt Q6WG00, strain, biotin on the AviTag). Description: ELISA.

The values below come from PMC12265162, “A single residue change only differing by an atomic group can drive imprinting to influenza” (Research Square, 2025).

B1: NI04359_d30_245 Fab (Fab, V domains shown)
VH: EVQLVESGGGLFKPGGSLRLSCAASGFTFRNAWMSWVRQAPGKGLEWVGRIKSKADGGTTDYAASVKGRFTISRDDSKNTLYLHMNSLKTEDTAVYYCTTPPEIAVVAAAMRDYYYGLDVWGPGTTVTVSS
VL: SYELTQPVSVSVALGQTARITCGGNNIGSKSLHWYQQKPGQAPVLVIYRDNNRPSGIPERFSGSNSGNTATLTISRAQAGDEADYYCQVWDSSTYVVFGGGTRLTVL
notes: also called mAb NI04359_d30_245; source: Expi293F, co-transfected, Fab purified from supernatant (Ni-NTA agarose)
Take B1: in assay [1], the binding result is on record as “binds”.

B2: NI01056_d30_604 Fab (Fab, V domains shown)
VH: QVQLQESGPGLVKPSETLSLTCTVSGGSISNYYWTWIRQPPGKGLEWIGYMYDSGNTKYNSSLRSRLTMSLDTSKNQFSLKMRSVTAADTAVYYCARGGGVRNLLGLRFVSDYMDVWGKGTTVTVSS
VL: DIQMTQSPSTLSASVGDRVTITCRASQSISSWLAWYQQKPGKAPHLLIYQASSLETGVPSRFSGSGSGTEFTLTISSLQPDDFATYYCQQYNTYSSTFGQGTQLQIK
notes: also called mAb NI01056_d30_604; source: Expi293F, co-transfected, Fab purified from supernatant (Ni-NTA agarose)
As to B2, in assay [1], the binding result is given as “binds”.

B3: NI06063_d30_103 mAb (human IgG1) (antibody, V domains shown)
VH: QVHLVESGGGVVQPGRSLRLSCAASGFTFSNYGMHWVRQAPGKGLEWVAFISYDGSNEYYADSVKGRFTISRDYSKYTLYLQMNSLRAEDTAVYYCAKDGQWLVRGAFDFWGQGTMVTVSS
VL: QSALTQPASVSGSPGQSITISCSGTGSDVGSSHLVSWYQHHPGKAPKLMIFEVSKRPLGVSNRFSGSKSGNTASLTISGLQTEDEADYYCCSYAGGRGVFGGGTKLTVL
notes: IgG1; also called mAb d30_103
In the case of B3, the binding result in assay [2], in assay [3] and in assay [4] was “no binding” throughout.
